Source: IntAct's records for PubMed 31116475

Target: aimp2_crigr AIMP2 (UniProt Q9WVM7)
Sequence (Q9WVM7 whole entry): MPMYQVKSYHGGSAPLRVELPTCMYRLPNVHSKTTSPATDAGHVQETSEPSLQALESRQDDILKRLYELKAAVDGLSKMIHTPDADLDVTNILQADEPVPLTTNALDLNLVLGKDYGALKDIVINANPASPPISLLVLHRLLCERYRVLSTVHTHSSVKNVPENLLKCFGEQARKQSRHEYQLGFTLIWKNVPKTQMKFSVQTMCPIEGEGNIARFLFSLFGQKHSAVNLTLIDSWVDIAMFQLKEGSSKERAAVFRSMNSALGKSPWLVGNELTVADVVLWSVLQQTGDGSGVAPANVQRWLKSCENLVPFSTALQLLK

Lysine--tRNA ligase (Cricetulus griseus (Chinese hamster)), P37879 P200L, sequence (P37879 whole entry P200L): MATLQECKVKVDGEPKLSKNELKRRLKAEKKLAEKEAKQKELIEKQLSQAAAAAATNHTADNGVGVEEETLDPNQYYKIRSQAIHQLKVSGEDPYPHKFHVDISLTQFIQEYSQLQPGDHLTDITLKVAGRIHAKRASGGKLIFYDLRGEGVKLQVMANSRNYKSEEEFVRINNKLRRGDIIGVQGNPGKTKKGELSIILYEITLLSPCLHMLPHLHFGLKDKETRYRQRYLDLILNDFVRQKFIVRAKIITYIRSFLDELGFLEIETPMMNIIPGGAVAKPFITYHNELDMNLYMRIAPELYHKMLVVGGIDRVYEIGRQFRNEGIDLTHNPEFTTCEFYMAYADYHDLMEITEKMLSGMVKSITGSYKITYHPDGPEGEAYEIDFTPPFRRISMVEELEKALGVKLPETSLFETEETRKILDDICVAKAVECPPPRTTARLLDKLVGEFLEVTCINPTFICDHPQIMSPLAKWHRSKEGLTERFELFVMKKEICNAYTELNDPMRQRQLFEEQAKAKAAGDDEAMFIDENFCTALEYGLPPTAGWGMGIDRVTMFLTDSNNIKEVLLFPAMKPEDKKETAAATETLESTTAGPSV
Lysine--tRNA ligase (Cricetulus griseus (Chinese hamster)), P37879 F263V, sequence (P37879 whole entry F263V): as the sequence (P37879 whole entry P200L) above, with L200P, F263V counted along it

Row | effect of a mutation on the interaction | Substance
1 | decreasing interaction strength | Lysine--tRNA ligase (Cricetulus griseus (Chinese hamster)), P37879 P200L
2 | decreasing interaction strength | Lysine--tRNA ligase (Cricetulus griseus (Chinese hamster)), P37879 F263V
